These results are taken from PMC12167484, “Specific phosphoinositide interaction of Jps1 is a key feature during unconventional secretion in Ustilago maydis” (The Journal of Biological Chemistry, 2025).

The term stoichiometry N denotes a count of units in the complex or per binding partner. The term Kd denotes the concentration at which binding is half-saturated.

Experiment [1] addresses Hebeloma cylindrosporum Jps1, full-length recombinant (Hebeloma cylindrosporum). Kind of experiment: SEC-MALS; after SEC purification the sample was applied to a Superdex 200 10/30 column coupled to a miniDAWN TREOS light scattering detector and a refractive index detector; monomer to dimer.
Experiment [2] concerns the target Ustilago maydis Jps1, full-length recombinant (Jps1^1-609) (Ustilago maydis). Kind of experiment: mass photometry; TwoMP mass photometer, protein at 10 nM in Hepes buffer, room temperature; monomer to dimer.
For experiment [3] the target is unchanged. Kind of experiment: SEC-MALS; after SEC purification the sample was applied to a Superdex 200 10/30 column coupled to a miniDAWN TREOS light scattering detector and a refractive index detector; monomer to dimer. Background: Size exclusion chromatography separates by hydrodynamic size, large species first.
In experiment [4] the target is Ustilago maydis Jps1^1-484 (lacking the unstructured C-terminus) (Ustilago maydis). Described as above.
The target is the same in experiment [5]. Put plainly: SAXS; P12 beamline, batch mode, 10 °C, 0.6 mg/ml purified Jps1^1-484; rigid body modeling of the dimer with CORAL.
Experiment [6] deals with Sporisorium reilianum Jps1, full-length recombinant (Sporisorium reilianum). Kind of experiment: mass photometry; TwoMP mass photometer, protein at 10 nM in Hepes buffer, room temperature; monomer to dimer.
The target is the same in experiment [7]. Kind of experiment: SEC-MALS; after SEC purification the sample was applied to a Superdex 200 10/30 column coupled to a miniDAWN TREOS light scattering detector and a refractive index detector; monomer to dimer.
The next experiment has as its target T1, UmJps1 (Jps1^1-609) (Mycosarcoma maydis, UniProt A0A0D1C3B2).
T1 construct: gene UMAG_03776; full length, 609 residues; 6xHis-Jps1 made in E. coli Rosetta(DE3) pLyS (pET22b, C-terminal His-tag in strip assay); homodimer 134 kDa
T1 sequence (A0A0D1C3B2 1-609): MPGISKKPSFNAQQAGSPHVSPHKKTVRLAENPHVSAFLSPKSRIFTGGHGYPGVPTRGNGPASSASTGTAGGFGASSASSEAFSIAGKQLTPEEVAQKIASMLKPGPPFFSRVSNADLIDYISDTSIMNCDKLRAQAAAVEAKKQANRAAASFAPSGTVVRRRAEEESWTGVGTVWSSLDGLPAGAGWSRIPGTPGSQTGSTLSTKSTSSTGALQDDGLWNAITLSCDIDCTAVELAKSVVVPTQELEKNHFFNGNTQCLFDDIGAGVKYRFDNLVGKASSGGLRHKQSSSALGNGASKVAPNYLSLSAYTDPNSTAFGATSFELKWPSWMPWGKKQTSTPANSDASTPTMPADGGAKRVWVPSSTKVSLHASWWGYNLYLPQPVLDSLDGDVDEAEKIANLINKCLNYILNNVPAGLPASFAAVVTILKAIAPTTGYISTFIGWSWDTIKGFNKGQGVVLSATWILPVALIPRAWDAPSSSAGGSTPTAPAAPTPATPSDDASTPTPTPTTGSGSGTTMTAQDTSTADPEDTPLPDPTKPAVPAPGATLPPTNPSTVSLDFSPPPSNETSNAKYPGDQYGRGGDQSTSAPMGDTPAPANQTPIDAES
Kind of experiment: liposome co-sedimentation, SDS-PAGE. It is filed as binding. The following applies: DOPC:cholesterol:PIP 80:15:5 (with cholesterol); protein:lipid 1:5000; pH 7.5, room temperature.

The next experiment concerns the target T2, HcJps1 (Hebeloma cylindrosporum, UniProt A0A0C3CFZ0).
T2 construct: gene M413DRAFT_206302; full length, 287 residues; 6xHis-GB1 fusion made in E. coli (GB1 tag cleaved with TEV before SEC; codon-optimised gene for U. maydis)
T2 sequence (A0A0C3CFZ0 1-287): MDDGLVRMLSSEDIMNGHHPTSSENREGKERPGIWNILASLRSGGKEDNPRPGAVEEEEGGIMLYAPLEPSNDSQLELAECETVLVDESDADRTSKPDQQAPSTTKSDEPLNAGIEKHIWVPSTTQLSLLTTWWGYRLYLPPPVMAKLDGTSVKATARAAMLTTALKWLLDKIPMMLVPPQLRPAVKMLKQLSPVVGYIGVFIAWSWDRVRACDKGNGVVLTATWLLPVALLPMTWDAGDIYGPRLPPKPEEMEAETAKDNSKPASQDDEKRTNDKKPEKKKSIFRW
Kind of experiment: surface plasmon resonance, immobilised liposomes, steady-state affinity. It is filed as binding. The following applies: DOPC/PI(4,5)P2 liposomes (1 mM lipid) on LP chip, DOPC reference; 20 mM Hepes pH 7.5, 20 mM KCl, 200 mM NaCl; 0.2-6.4 μM protein. On the technique in general: In SPR one partner is held on a chip, and binding of the other changes the refractive index at the surface.

For the next experiment, the target named is T3, Cts1 (Mycosarcoma maydis, UniProt A0A0D1DVM8).
T3 construct: gene UMAG_10419; native Cts1, extracellular on intact U. maydis AB33 cells or in native cell extracts
T3 sequence (A0A0D1DVM8 1-502): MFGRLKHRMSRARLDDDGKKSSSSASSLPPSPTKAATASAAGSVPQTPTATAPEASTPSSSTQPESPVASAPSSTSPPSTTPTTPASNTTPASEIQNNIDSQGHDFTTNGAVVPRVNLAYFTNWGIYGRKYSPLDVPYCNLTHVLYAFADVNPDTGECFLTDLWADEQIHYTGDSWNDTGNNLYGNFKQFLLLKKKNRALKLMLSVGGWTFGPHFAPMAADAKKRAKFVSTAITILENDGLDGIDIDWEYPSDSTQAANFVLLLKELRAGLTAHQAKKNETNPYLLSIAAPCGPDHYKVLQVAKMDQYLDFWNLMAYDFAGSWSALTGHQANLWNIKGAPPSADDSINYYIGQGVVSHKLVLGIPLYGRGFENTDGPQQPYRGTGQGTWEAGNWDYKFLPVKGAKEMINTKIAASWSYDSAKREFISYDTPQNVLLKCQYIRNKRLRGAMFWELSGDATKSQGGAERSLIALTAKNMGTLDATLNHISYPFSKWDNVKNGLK
Put plainly: fluorogenic chitinase assay, intact cells or native extract. It is filed as cell-based. Particulars: KHM buffer (110 mM potassium acetate, 20 mM Hepes, 2 mM MgCl2), 25 °C.

As to “Hebeloma cylindrosporum Jps1, full-length recombinant (natural protein)”, the stoichiometry N in experiment [1] came out at 2.

For the molecule “Ustilago maydis Jps1, full-length recombinant (Jps1^1-609) (natural protein)”, in [2], the percent of particles in the dimer fraction was determined as 69% and the stoichiometry N was determined as 2. The stoichiometry N in experiment [3] was 2.

With “Ustilago maydis Jps1^1-484 (lacking the unstructured C-terminus) (domain or fragment)”, the stoichiometry N in experiment [4] and in experiment [5] was 2 in each case.

On to “Sporisorium reilianum Jps1, full-length recombinant (natural protein)”, for which the stoichiometry N in [6] and in [7] was 2 in each case.

For the molecule PI(4,5)P2, on UmJps1 (Jps1^1-609), the “% of input protein bound” value is reported as ~ 50%. On HcJps1, this molecule had an equilibrium dissociation constant (Kd) of 900 nM.

Turning to `CC(=O)N[C@H]1[C@H](Oc2ccc3c(C)cc(=O)oc3c2)O[C@H](CO)[C@@H](O[C@@H]2O[C@H](CO)[C@@H](O[C@@H]3O[C@H](CO)[C@@H](O)[C@H](O)[C@H]3NC(C)=O)[C@H](O)[C@H]2NC(C)=O)[C@@H]1O` [MUC, 4-methylumbelliferyl-β-D-N, N′, N’’-triacetylchitotrioside], the “fluorogenic chitinase assay, intact cells or native extract” value on Cts1 was “MUC, a fluorogenic substrate 4-methylumbelliferyl-β-D-N, N′, N’’-triacetylchitotrioside”.
